# Laboratory results: patent US20220265842A1, “ANTI-CD40 ANTIBODY DRUG CONJUGATES” (priority 2017, published 2022)
# B1: Example 12-hydrolyzed (human), n=4 (antibody, human IgG1, kappa, L234A L235A, V domains shown)
# VH: EVQLVESGGGLVKPGGSLRLSCAASGFTFSDYGMNWVRQAPGKGLEWIAYISSGRGNIYYADTVKGRFTISRDNAKNSLYLQMNSLRAEDTAVYYCARSWGYFDVWGQGTTVTVSS
# VL: DIVMTQSPDSLAVSLGERATINCKSSQSLLNRGNQKNYLTWFQQKPGQPPKLLIYWASTRESGVPDRFSGSGSGTDFTLTISSLQAEDVAVYYCQNDYTYPLTFGQGTKLEIKR
# modifications: glucocorticoid drug-linker of Precursor Example 12 (maleimide, thiosuccinimide ring hydrolyzed) on cysteine thiols of reduced disulfides; n=4 per antibody; positions not given
# B2: Example 13-hydrolyzed (human), n=4 (antibody, human IgG1, kappa, L234A L235A, V domains shown)
# VH: B1 VH
# VL: B1 VL
# modifications: glucocorticoid drug-linker of Precursor Example 13 (maleimide, thiosuccinimide ring hydrolyzed) on cysteine thiols of reduced disulfides; n=4 per antibody; positions not given
# B3: Example 28-conjugated (human), n=2 (antibody, human IgG1, kappa, L234A L235A, DAR 2, V domains shown)
# VH: B1 VH
# VL: B1 VL
# modifications: glucocorticoid drug-linker of Precursor Example 28 (bromoacetamide) on cysteine thiols of reduced interchain disulfides; n=2 per antibody; positions not given
# B4: Example 28-conjugated (human), n=4 (antibody, human IgG1, kappa, L234A L235A, DAR 4, V domains shown)
# VH: B1 VH
# VL: B1 VL
# modifications: glucocorticoid drug-linker of Precursor Example 28 (bromoacetamide) on cysteine thiols of reduced interchain disulfides; n=4 per antibody; positions not given
# B5: Example 4-conjugated (human), n=4 (antibody, human IgG1, kappa, L234A L235A, DAR 4, V domains shown)
# VH: B1 VH
# VL: B1 VL
# modifications: glucocorticoid drug-linker of Precursor Example 4 (bromoacetamide) on cysteine thiols of reduced interchain disulfides; n=4 per antibody; positions not given
# B6: Human anti-CD40 antibody Ab102 (antibody, human IgG1, kappa, L234A L235A, V domains shown)
# VH: B1 VH
# VL: B1 VL
# Molecular target: human CD40 Transcript 1 (Myc-DDK-tagged) on HEK293 GRE reporter cells (human, UniProt P25942 21-277)
# Experiment: cell-based or functional assay
# Sequence of human CD40 Transcript 1 (Myc-DDK-tagged) on HEK293 GRE reporter cells (P25942 21-277): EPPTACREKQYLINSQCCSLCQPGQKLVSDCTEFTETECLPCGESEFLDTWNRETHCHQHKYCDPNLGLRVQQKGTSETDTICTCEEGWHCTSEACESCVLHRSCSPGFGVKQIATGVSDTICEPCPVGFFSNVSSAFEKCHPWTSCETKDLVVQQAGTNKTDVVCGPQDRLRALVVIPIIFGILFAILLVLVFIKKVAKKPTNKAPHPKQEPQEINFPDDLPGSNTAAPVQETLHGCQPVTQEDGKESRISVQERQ
Binder,hCD40 GRE (% max) [%],hCD40 GRE EC50 [µg/mL]
B1,163,0.19
B2,67,0.29
B3,90,16.5
B4,77,0.53
B5,88,6.57

# Molecular target: human CD40 on LPS-stimulated human monocyte-derived dendritic cells (human, UniProt P25942 21-277)
# Experiment: cell-based or functional assay
# Sequence of human CD40 on LPS-stimulated human monocyte-derived dendritic cells (P25942 21-277 limits assumed): as the sequence (P25942 21-277) above
Binder,IL-6 release IC50 [µg/mL],Max Inhibition (%)
B1,0.04,99.5
B2,0.14,83.3
B3,0.03,81.8
B4,0.05,87.6
B6,0.18,44.5
